Residue numbers refer to the chain shown, from its start.
B1: B. subtilis araT: Bacillus subtilis aromatic aminotransferase (araT, SEQ ID NOS: 9 and 10) (protein, listed as Bacillus subtilis)
chain: MEHLLNPKAREIEISGIRKFSNLVAQHEDVISLTIGQPDFFTPHHVKAAAKKAIDENVTSYTPNAGYLELRQAVQLYMKKKADFNYDAESEIIITTGASQAIDAAFRTILSPGDEVIMPGPIYPGYEPIINLCGAKPVIVDTTSHGFKLTARLIEDALTPNTKCVVLPYPSNPTGVTLSEEELKSIAALLKGRNVFVLSDEIYSELTYDRPHYSIATYLRDQTIVINGLSKSHSMTGWRIGFLFAPKDIAKHILKVHQYNVSCASSISQKAALEAVTNGFDDALIMREQYKKRLDYVYDRLVSMGLDVVKPSGAFYIFPSIKSFGMTSFDFSMALLEDAGVALVPGSSFSTYGEGYVRLSFACSMDTLREGLDRLELFVLKKREAMQTINNGV
B2: R. sphaeroides 35053 msa: R. sphaeroides 35053 multiple substrate aminotransferase (SEQ ID NOS: 13 and 14) (protein)
chain: MREPLALEIDPGHGGPLFLAIAEAITLDITRGRLRPGARLPGTRALARALGVHRNTVDAAYQELLTQGWLQAEPARGTFVAQDLPQGMLVHRPAPAPVEPVAMRAGLAFSDGAPDPELVPDKALARAFRRALLSPAFRAGADYGDARGTSSLREALAAYLASDRGVVADPARLLIARGSQMALFLVARAALAPGEAIAVEEPGYPLAWEAFRAAGAEVRGVPVDGGGLRIDALEAALARDPRIRAVYVTPHHQYPTTVTMGAARRLQLLELAERHRLALIEDDYDHEYRFEGRPVLPLAARAPEGLPLIYVGSLSKLLSPGIRLGYALAPERLLTRMAAARAAIDRQGDAPLEAALAELIRDGDLGRHARKARRVYRARRDLLAERLTAQLAGRAAFDLPAGGLALWLRCAGVSAETWAEAAGQAGLALLPGTRFALESPAPQAFRLGYAALDEGQIARAVEILARSFPG
modifications: R. sphaeroides
B3: R. sphaeroides 2.4.1 tatA: Rhodobacter sphaeroides strain 2.4.1 tyrosine aminotransferase (SEQ ID NOS: 3 and 4) (protein)
chain: MRSTTAPGPSGACMTISRSRKDDEGMLTALKPQPADKILQLIQMFREDARADKIDLGVGVYKDPTGLTPVMRAVKAAEKRLWEVETTKTYTGLADEPAYNAAMAKLILAGAVPADRVASVATPGGTGAVRQALELIRMASPEATVWISNPTWPNHLSIVKYLGIPMREYRYFDAETGAVDAEGMMEDLAQVKAGDVVLLHGCCHNPTGANPNPVQWLAICESLARTGAVPLIDLAYQGFGDGLEMDAAATRLLATRLPEVLIAASCSKNFGIYRERTGILIAIGEAAGRGTVQANLNFLNRQNYSFPPDHGARLVTMILEDETLSADWKAELEEVRLNMLTLRRQLADALQAETGSNRFGFVAEHRGMFSRLGITPAEVERLRTEHGVYMVGDSRLNIAGLNRTTVPVLARAVAKVLRG
modifications: Rhodobacter sphaeroides
B4: R. sphaeroides 35053 tatA: R. sphaeroides 35053 tyrosine aminotransferase (SEQ ID NOS: 5 and 6) (protein)
chain: B3 chain with D95G, M184L, I219V
modifications: Rhodobacter sphaeroides
B5: L. amylovorus araT: Lactobacillus amylovorus aromatic aminotransferase (araT, SEQ ID NOS: 11 and 12), novel (protein, listed as Lactobacillus amylovorus)
chain: MPELANDLGLSKKITDVKASGIRIFDNKVSAIPGIIKLTLGEPDMNTPEHVKQAAIKNIADNDSHYAPQKGKLELRKAISKYLKKITGIEYDPETEIVVTVGATEAINATLFAITNPGDKVAIPTPVFSLYWPVATLADADYVLMNTAEDGFKLTPKKLEETIKENPTIKAVILNYPTNPTGVEYSEDEIKALAKVIKDNHLYVITDEIYSTLTYGVKHFSIASLIPERAIYISGLSKSHAMTGYRLGYVAGPAKIMAEIGKVHGLMVTTTTDSSQAAAIEALEHGLDDPEKYREVYEKRRDYVLKELAEIEMQAVKPEGAFYIFAKIPAKYGKDDMKFALDLAFKEKVGITPGSAFGPGGEGHIRLSYASSDENLHEAMKRMKKVLQEDE
B6: Porcine type II-A: Glutamic-oxaloacetic transaminase from pig heart (type IIa), Sigma G7005 (protein, UniProt P00503 2-413, looked up)
Aspartate aminotransferase, …: APPSVFAEVPQAQPVLVFKLIADFREDPDPRKVNLGVGAYRTDDCQPWVLPVVRKVEQRIANDSSLNHEYLPILGLAEFRTCASRLALGDDSPALQEKRVGGVQSLGGTGALRIGAEFLARWYNGTNNKDTPVYVSSPTWENHNGVFTTAGFKDIRSYRYWDTEKRGLDLQGFLSDLENAPEFSIFVLHACAHNPTGTDPTPEQWKQIASVMKRRFLFPFFDSAYQGFASGNLEKDAWAIRYFVSEGFELFCAQSFSKNFGLYNERVGNLTVVAKEPDSILRVLSQMEKIVRVTWSNPPAQGARIVARTLSDPELFHEWTGNVKTMADRILSMRSELRARLEALKTPGTWNHITDQIGMFSFTGLNPKQVEYLINEKHIYLLPSGRINMCGLTTKNLDYVATSIHEAVTKIQ
B7: Porcine type I: commercial porcine glutamate-oxaloacetate aminotransferase, Sigma G2751 (protein, UniProt P00503 2-413, looked up)
Aspartate aminotransferase, …: B6 Aspartate aminotransferase, …
B8: E. coli aspC: Escherichia coli aspartate aminotransferase (aspC) (protein, UniProt P00509 1-396, looked up)
Aspartate aminotransferase: MFENITAAPADPILGLADLFRADERPGKINLGIGVYKDETGKTPVLTSVKKAEQYLLENETTKNYLGIDGIPEFGRCTQELLFGKGSALINDKRARTAQTPGGTGALRVAADFLAKNTSVKRVWVSNPSWPNHKSVFNSAGLEVREYAYYDAENHTLDFDALINSLNEAQAGDVVLFHGCCHNPTGIDPTLEQWQTLAQLSVEKGWLPLFDFAYQGFARGLEEDAEGLRAFAAMHKELIVASSYSKNFGLYNERVGACTLVAADSETVDRAFSQMKAAIRANYSNPPAHGASVVATILSNDALRAIWEQELTDMRQRIQRMRQLFVNTLQEKGANRDFSFIIKQNGMFSFSGLTKEQVLRLREEFGVYAVASGRVNVAGMTPDNMAPLCEAIVAVL
B9: E. coli tyrB: E. coli tyrosine aminotransferase (tyrB, SEQ ID NOS: 31 and 32) (protein)
chain: VFQKVDAYAGDPILTLMERFKEDPRSDKVNLSIGLYYNEDGIIPQLQAVAEAEARLNAQPHGASLYLPMEGLNCYRHAIAPLLFGADHPVLKQQRVATIQTLGGSGALKVGADFLKRYFPESGVWVSDPTWENRVAIFAGAGFEVSTYPWYDEATNGVRFNDLLATLKTLPARSIVLLHPCCHNPTGADLTNDQWDAVIEILKARELIPFLDIAYQGFGAGMEEDAYAIRAIASAGLPALVSNSFSKIFSLYGERVGGLSVMCEDAEAAGRVLGQLKATVRRNYSSPPNFGAQVVAAVLNDEALKASWLAEVEEMRTRILAMRQELVKVLSTEMPERNFDYLLNQRGMFSYTGLSAAQVDRLREEFGVYLIASGRMCVAGLNTANVQRVAKAFAAVM
modifications: E. coli

Assay: tryptophan aminotransferase activity, production of indole-pyruvic acid
Format: biochemical
Conditions: cell extracts (CE); 5 mM L-tryptophan, 30 minutes at 30° C.
Method: Cell extracts were analyzed by SDS-PAGE, and assayed for tryptophan aminotransferase activity by following production of indole-pyruvic acid using the following protocol. One mL reactions were carried out in 50 mM sodium tetraborate (pH 8.5), 0.5 mM EDTA, 0.5 mM sodium arsenate, 50 μM pyridoxal phosphate, 5 mM α-ketoglutarate, and 5 mM L-tryptophan. The reactions were initiated by the addition of cell free extracts or purified enzyme and were incubated 30 minutes at 30° C. 20% TCA (200 μL) was added to stop the reaction, and the precipitated protein was removed by centrifugation. The absorbance at 327 nm was measured and compared to a standard curve of freshly prepared indole-3-pyruvate in the assay buffer. Control reactions without the substrate tryptophan or using cell-free extracts from clones transformed with pET30a alone were also performed.
Due to background from the native E. coli aminotransferases in cell extracts, the recombinant fusion proteins each containing an aminotransferase protein fused to the pET30 amino terminal HIS6-Tag/S-Tag (6×HIS tag disclosed as SEQ ID NO: 90) were purified using immobilized metal affinity chromatography with His-Bind cartridges following manufacturer's protocols (Novagen, Madison, Wis.). The HIS6-Tag sequence (SEQ ID NO: 90) of the fusion proteins binds to the divalent Ni^2+ cations immobilized on IDA-based His-Bind resin. The eluent fractions were desalted on PD-10 (Amersham Biosciences, Piscataway, N.J.) columns and eluted in 50 mM Tris, pH 7.0. Purified proteins were analyzed by SDS-PAGE and assayed for aminotransferase activity.
Table 1 lists the specific activities measured in micrograms of indole-3-pyruvate (I3P) formed per milligram protein per minute. […] In these cases a ‘>’ precedes the specific activity number.

Molecule	Specific Activity [μg I3P/mg protein/min]
B1	0
B2	3.97
B3	>41.2
B4	>62.3
B5	1.26

Same assay, conditions: commercial enzyme (Sigma)

Molecule	Specific Activity [μg I3P/mg protein/min]
B6	1.5
B7	1

Same assay, conditions: purified (P); 5 mM L-tryptophan, 30 minutes at 30° C.

Molecule	Specific Activity
B1	1.5–4.5 μg I3P/mg protein/min
B2	0 μg I3P/mg protein/min
B3	1086 μg I3P/mg protein/min
B4	>486 μg I3P/mg protein/min
B5	0 μg I3P/mg protein/min
B8	800 μg I3P/mg protein/min
B9	1 μg I3P/mg protein/min

Same assay, conditions: recombinant clones expressed in E. coli

Molecule	tryptophan aminotransferase activity (in words)
B1	little enzymatic activity
B8	significant levels of tryptophan aminotransferase activity

— patent US8206955B2, “Production of monatin and monatin precursors” (Cargill, Incorporated, priority 2003, dated 2012)
